One block for each molecule: values may come before it. Where a SMILES comes first, the peptide text is derived from it. Where no end group is shown, it is not given here. The star is where a group is joined. Dansyl = CN(C)c1cccc2c(S(=O)(=O)*)cccc12
Key:
[1] = target: T1, pWT43 PDZ2as (Mus musculus, UniProt Q64512, INS1372VLFDK/Y1385W); experiment: T-jump kinetic binding of dansylated peptides to pWT43 PDZ2as; conditions: 50 mM sodium phosphate pH 7.2, 150 mM KCl; for Kd: 25°C, from T-jump kinetics, read-out: overall KD obtained from kinetic experiments; for kon / koff: T-jump 16 to 25°C, PDZ2as 2 μM, peptide 100 to 400 μM, fluorescence ex 296 nm, 20 traces averaged, pseudo-first order; for kon: read-out: association bimolecular rate constant kon; for koff: read-out: dissociation rate constant koff
T1 construct: The second PDZ domain of the protein tyrosine phosphatase BL (PDZ2); made in house
T1 sequence (Q64512 with tags, fused parts or gaps INS1372VLFDK/Y1385W): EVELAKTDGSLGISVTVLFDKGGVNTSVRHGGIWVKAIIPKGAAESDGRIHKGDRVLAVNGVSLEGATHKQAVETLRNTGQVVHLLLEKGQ
Experimental: Previous studies have highlighted that the alternative splicing affects remarkably the binding function of the PDZ moiety, by nearly abrogating binding. To address the binding mechanism of pWT43 PDZ2as and its physiological partners, we performed kinetic experiments at 25°C. We carried out kinetic binding experiments by subjecting to temperature jump kinetics a constant concentration of pWT43 PDZ2as (2 μM) in the presence of excess concentrations of dansylated peptides mimicking the PDZ binding motif of APC and RIL; the latter concentrations typically varying from 100 to 400 μM. In particular, individual solutions containing a constant concentration of PDZ2as 2 μM and different concentrations of APC and RIL peptide were prepared and, subsequently, each of these solutions was subjected to a rapid temperature-jump to explore sub-ms relaxation binding kinetics. Under all the explored conditions, the observed time course was satisfactorily fitted by a single-exponential function, without evidence for accumulation of detectable intermediates. Analysis of the pseudo-first order dependence of observed rate constants (Figure 6) yields an association bimolecular rate constant kon of (0.44 ± 0.1) 10^6 s^−1 M^−1 and (0.74 ± 0.1) 10^6 s^−1 M^−1 and a dissociation rate constant koff of 145 ± 10 s^−1 and 120 ± 15 s^−1, respectively for APC and RIL peptides. […] A comparison between the observed kinetics on the light of previously reported structural and kinetic data of pWT43 PDZ2 is briefly discussed below.
Figure 6 Binding properties of pWT43 PDZ2as and of pWT43 PDZ2. Pseudo first order kinetics of the binding between pWT43 PDZ2as (circles) and pWT43 PDZ2 (diamonds) carried out at pH 7.2, 25°C. Data refer to both the APC (open symbols) and RIL (filled symbols) peptide.
Dansylated peptides corresponding to the C-terminus of APC and RIL, sequences D-SYLVTSV and D-EQVSAV, respectively, were purchased from JPT Peptide Technologies (Berlin, Germany); peptides were purified using high-performance liquid chromatography-purified peptide with purity higher than 95%.
Binding experiments were performed mixing a constant concentration of PDZ2as 2 μM with increasing concentrations of the APC or RIL peptide ranging from 100 to 400 μM in 50 mM sodium phosphate pH 7.2, in the presence of 150 mM KCl. The experiments were carried out using a Hi-Tech PTJ-64 capacitor-discharge T-jump apparatus (Hi-Tech, Salisbury, U.K.). Temperature was rapidly changed from 16°C to 25°C with a jump of 9°C. 20 individual traces were averaged at given peptide concentration. The fluorescence change of N-acetyltryptophanamide (NATA) was used in control measurements. Protein concentration was typically […]. The excitation wavelength was 296 nm and the fluorescence emission was measured using a band pass 315 +/− 25 nm glass filter.

[2] = target: T2, pWT43 PDZ2as, the alternatively spliced form of the second PDZ domain of protein tyrosine phosphatase BL …; experiment: temperature-jump fluorescence relaxation kinetics; constant pWT43 PDZ2as 2 uM with dansylated peptide 100 to 400 uM (pseudo-first order); 50 mM sodium phosphate pH 7.2, 150 mM KCl; jump from 16 to 25 °C; KD from kinetics; conditions: both partners purified
T2 chain: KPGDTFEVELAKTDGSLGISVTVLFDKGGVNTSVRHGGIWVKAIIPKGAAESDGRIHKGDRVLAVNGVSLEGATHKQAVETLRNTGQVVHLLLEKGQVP

- Kd [1]: 162 ± 10 µM
- kon [1]: 740000 ± 100000 M⁻¹ s⁻¹
- koff [1]: 120 ± 15 s⁻¹
Molecule: CC(C)[C@H](NC(=O)[C@H](C)NC(=O)[C@H](CO)NC(=O)[C@@H](NC(=O)[C@H](CCC(N)=O)NC(=O)[C@H](CCC(=O)O)NS(=O)(=O)c1cccc2c(N(C)C)cccc12)C(C)C)C(=O)O [RIL] (Dansyl-EQVSAV-OH)

- Kd [1]: 352 ± 20 µM
- kon [1]: 440000 ± 100000 M⁻¹ s⁻¹
- koff [1]: 145 ± 10 s⁻¹
Molecule: CC(C)C[C@H](NC(=O)[C@H](Cc1ccc(O)cc1)NC(=O)[C@H](CO)NS(=O)(=O)c1cccc2c(N(C)C)cccc12)C(=O)N[C@H](C(=O)N[C@H](C(=O)N[C@@H](CO)C(=O)N[C@H](C(=O)O)C(C)C)[C@@H](C)O)C(C)C [APC] (Dansyl-SYLVTSV-OH)

- Kd [2]: 352 ± 20 µM
- fold decrease of kon against pWT43 PDZ2 [2]: ~10 fold
- koff [2]: 145 ± 10 s⁻¹
- kon [2]: 440000 M⁻¹ s⁻¹
B1: Dansylated peptide corresponding to the C-terminus of APC (D-SYLVTSV) (peptide)
peptide: Dansyl-SYLVTSV
notes: C-terminus of the tumour suppressor protein APC; the last 7 residues; also called APC peptide; source: bought: JPT Peptide Technologies (Berlin, Germany), HPLC-purified, purity higher than 95%

- Kd [2]: 162 ± 10 µM
- fold decrease of kon against pWT43 PDZ2 [2]: ~10 fold
- koff [2]: 120 ± 15 s⁻¹
- kon [2]: 740000 M⁻¹ s⁻¹
B2: Dansylated peptide corresponding to the C-terminus of RIL (D-EQVSAV) (peptide)
peptide: Dansyl-EQVSAV
notes: Which natural protein the peptide comes from is in doubt; also called RIL peptide; source: bought: JPT Peptide Technologies (Berlin, Germany), HPLC-purified, purity higher than 95%

From article PMC4365404, “Understanding the effect of alternative splicing in the folding and function of the second PDZ from Protein Tyrosine Phosphatase-BL” (Scientific Reports, 2015)
